Biological target: T1, PD-1 (UniProt Q15116 25-288, limits assumed)
T1 construct: whole, on cells; also called Jurkat/PD-1细胞表面的PD-1
Assay: Jurkat/PD-1 + CHO/PD-L1 NFAT-luciferase reporter blocking assay

T1 sequence (Q15116 25-288 limits assumed): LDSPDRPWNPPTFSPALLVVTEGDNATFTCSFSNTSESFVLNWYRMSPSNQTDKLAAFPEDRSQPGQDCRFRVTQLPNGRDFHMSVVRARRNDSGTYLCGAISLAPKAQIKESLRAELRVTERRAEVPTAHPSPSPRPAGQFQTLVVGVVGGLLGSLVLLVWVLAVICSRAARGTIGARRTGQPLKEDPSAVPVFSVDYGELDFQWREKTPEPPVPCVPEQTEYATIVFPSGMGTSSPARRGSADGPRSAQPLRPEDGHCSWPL

binding result: binds
B1: G-Ab1 (antibody, human IgG4 S228P, kappa, V domains shown)
VH: QIQLVQSGSELKKPGASVKVSCKASGYTFTNFGMNWVRQAPGQGLKWMGWISGYTREPTYAADFKGRFVISLDTSVSTAYLQISSLKAEDTAVYYCARDVFDYWGQGTLVTVSS
VL: DIVLTQSPASLAVSPGQRATITCRASESVDNYGYSFMNWFQQKPGQPPKLLIYRASNLESGVPARFSGSGSRTDFTLTINPVEADDTANYYCQQSNADPTFGQGTKLEIKR
notes: An IgG4 isotype control was used alongside it; also called 抗PD-1抗体; G-Ab1抗体

From patent CN115607664A (GENOR BIOPHARMA CO LTD, dated 2023)
